Measured values as given in the RNAGym collection of RNA variant scans (doi:10.1073/pnas.2313332121).
This sample holds only a part of the variants without activity.

B1: TPR 5TU (parent)
chain: GGAUCUUCUCGAUCUAACAAAAAAGACAAAUCUGCCACAAAGCUUGAGAGCAUCUUCGGAUGCAGAGGCGGCAGCCUUCGGUGGCGCGAUAGCGCCAACGUUCUCAACUAUGACACGCAAAACGCGUGCUCCGUUGAAUGGAGUUUAUCAUG

Variants of: B1
Assay: polymerase ribozyme fitness, log enrichment relative to wild type (log ratio); higher = more active; in vitro selection for triplet polymerase activity
Outline: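 Both subunits of a heterodimeric triplet polymerase ribozyme were given their own mutant library, built by PCR and transcribed. Each library was annealed with a biotinylated primer, the partner subunit and triplets, incubated frozen at −7 °C, and its extended constructs gel-excised, captured on streptavidin beads and amplified by RT-PCR, all in one round done in triplicate. Fitness is the logarithm of genotype enrichment relative to wild-type enrichment, with replicates averaged by inverse-variance weighting. That logarithm is base 2, and Illumina-sequenced genotypes needed ≥10 input reads and ≥1 read per output.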

Variant	polymerase ribozyme fitness (log ratio)
GGAUCUUCUCGAUCUAACAAAAAAGACAAAUCUGCCACAAGGCUUGAGAGCAUCUUCGGAUGCAGAGGCGGCAGCCUUCGGUGGCCCGAUAGCGCCAACGUUCUCAACUAUGACACGCAAAACGCGUGCUCCGUUGAAUGGAGUUUAUCAUG	-3.28
GGAUCUUCUCGAUCUAACAAAAAAGACAAAUCUGCCACAAGGCUUGAGAGCAUCUUCGGAUGCAGAGGCGGCAGCCUUCGGUGGCGCGAUAACGCCAAUGUUCUCAACUAUGACACGCAAAACGCCUGCUCCGUUGAAUGGAGUUUAUAAUG	≤ -4.2
GGAUCUUCUCGAUCUAACAAAAAAGACAAAUCUGCCACAAGGCUUGAGAGCAUCUUCGGAUGCAGAGGCAGCAGCCUUCGGUGGCGCGAUAGUGCCAUCGUUCUCAACUAUGACACGCAAAACGCGUGCUCCGUUGAAUGGAGUUUAUCAUG	-3.95
GGAUCUUCUCGAUCUAACAAAAAAGACAAAUCUGCCACAAUGCUUGAGAGCAUCUUCGGAUGCAGAGGCGGCAGCCUUCGGUGGAGCGAUAGCGCCAACGUUCUCAACUAUGACACGCAAAACGCGUGCUCCGUUGAAUGGAGUUUAUCAUG	-3.35
GGAUCUUCUCGAUCUAACAAAAAAGACAAAUCUGCCACAAGGCUUGAGAGCAUCUUCGGAAGCAGAGGCGGCAGCCUUCGGUGGCGCGAUAGCGCCAACGUUCUCAACUAUGUCACGCAAAACGCGUGCUCCGUUGAAUGGAGUUUAUCAUG	-2.93
GGAUCUUCUCGAUCUAACAAAAAAGACAAAUCUGCCACAAGGCUCGAGAGCAUCUUUGGAUGCAGAGGCGGCAGCCUUCGGUGGCGCGAUAACGCCAACGUUCUCAAGUAUGACACGCAAAACGCGUGCUCCGUUGAAUGGAGUUUAUCAUG	-3.34
GGAUCUUCUCGAUCUAACAAAAAAGACAAAUCUGCCACAAUGCUUGAGAGUAUCUUCGGAUGCAGAGGCGGCAGCCUUCGGUGGAGCGAUAGCGCCAACGUUCUCAACUAUGACUCGCAAAACGCGUGCUCCGUUGAAUGGUGUUUAUCAUG	≤ -4.2
GGAUCUUCUCGAUCUAACAAAAAAGACAAAUCUGCCACAAGGCUUGAGAGCAACAUCGGAUGCAGAGGCGGCAGCCUUCGGUGGCGCGAUUGCGCCAAAGUUCUCAACUAUGACACGCAAAACGCGUGCUCCGUUGAAUGGAGUUUAACAUG	≤ -4.2
GGAUCUUCUCGAUCUAACAAAAAAGACAAAUCUGCCACAAUGCUUGAGAGCAUCUUCGGAUGCAGAGGCGGCAGCCUUCGGUGGCGCGAUAGCGCCAAAGUUCUCUACUAUGACACGAGAAACGCGUGCUCCGCUGAAUGGAGUUUAUCAUG	≤ -4.2
GGAUCUUCUCGAUCUAACAAAAAAGACAAAUCUGCCACAAUGCUUGAGAGCAUCUUCGGAUGCAGAGGCGGCAGCCUUCGGUGGCGCGAUAGCGCUAACGUUCUCAACUAUGACACGCAAACCGCGUGCUCCGUUGAAUGGAGUUUAUCAUG	-1.02
GGAUCUUCUCGAUCUAACAAAAAAGACAAAUCUGCCACAAUGCUUGCGAGCAUCUUCGUAAGCAGUGGCGGCAGCCUUCGGUGGGGCGAUAGCGCCAACGUUCUCACCUAUGACACGCAAAACGCGUGCUCCGUUGAAUGGAGUUUACCAUG	≤ -4.2
GGAUCUUCUCGAUCUAACAAAAAAGACAAAUCUGCCACAAGGCUUGAGAGCAUCUACCGAUGCAGAGGCGGCAGCCUUCGGUGGCGAGAUAGCGCCAACGUUCUCAAGUAUGACACGCAAAACGCGUGCUCCGUUGAAUGGACUUUAUCAUG	≤ -4.2
GGAUCUUCUCGAUCUAACAAAAAAGACAAAUCUGCCACAAUGCUUGAGAGCAUCUUCGGAUGCAGAGGCGGCAGCCUUCGGUGGCGCGAUAGCGCCAACGUUCUCAACUAUGACACGCAAAAGGCGUGCUCCGUUGAAUGGAGUUUAUCAUG	-1.42
GGAUCUUCUCGAUCUAACAAAAAAGACAAAUCUGCCACAAGGCUUGAGAGCAACUUCGCAUGCAGAGGCGGCAGCCUUCGGUGGCGCGAUAGCGCCAGCGUCCUCAACUAUGACACGCAAAACGCGUGCUCCAUUGAAUGGAGUUUAUCAUG	≤ -4.2
GGAUCUUCUCGAUCUAACAAAAAAGACAAAUCUGCCACAAUGCUUGAGAGCAUCUUCGGAUGCAGAGGCGGCAGCCUUCGGUGGCGCGAUAGCGCCAACGUUCUCAACUAUGACACGCAAAACGCGUGCUCCGUUGAAUGGAGUUUAUCAUG	-0.621
GGAUCUUCUCGAUCUAACAAAAAAGACAAAUCUGCCACAAUGCUUGAGAGCAUCUUCGGAUGCAGAGGCGGCAGCCUUCGGUGGCGCGGCAGCACCAACGUUCUCAACUAUGACACGCAACACGCGUGCUCCGUUGAAUGGAGUUUAUCAUG	≤ -4.2
GGAUCUUCUCGAUCUAACAAAAAAGACAAAUCUGCCACAAUGCUUGAGAGCGUCUUCGGAUGCAGAGGCGGCAGCCUUCGGUGGCGCGAUAGCGCAAACGUUCUCAACUAUGACACGCAAAACGCGUGCUCCGUUGAAUGGAGUUUAUCAUG	-3.24
GGAUCUUCUCGAUCUAACAAAAAAGACAAAUCUGCCACAAUGCUUGAGAGCAUCUUCGGAUGCAGAGGCGGCAGCCUUCGGUGGUGCGAUAGCGCCAACGUUCUCAACUAUGACACGCAAAGCGCGUGCUCCGUUGAAUGGAGUUUAUCAUG	-1.39
GGAUCUUCUCGAUCUAACAAAAAAGACAAAUCUGCCACAAUGCUUGAGAGCCUCUUCGGAUGCAGAGGCGGCAGCUUUCGGUGGCGCGAUAGCGCCAACGUUCUCAACUAUGACACGCAAAACGCGUGCUCCGUUGAAUGGAGUUUAUCAUG	-3.25
